Laboratory results: publication PMC4220304
pKd: −log10 of the molar value.

The substances below were run against L363 antibody (anti-CD1d-α-GalCer) (assay: SPR).

Row | pKd | koff [s⁻¹] | kon [M⁻¹ s⁻¹] | Substance
1 | 5.30 | 0.471 | 93700 | CD1d loaded with α-GluCer (from UniProt P11609 22-297; P01887 21-119) (complex)
2 | 7.01 | – | 85700 | CD1d loaded with α-GalCer (from UniProt P11609 22-297; P01887 21-119) (complex)
3 | 5.65 | – | 943000 | CD1d loaded with α-lyso-galactosylceramide (α-psychosine) (from UniProt P11609 22-297; P01887 21-119) (complex)
4 | 6.46 | – | 142000 | CD1d loaded with C24:1 α-GalCer (from UniProt P11609 22-297; P01887 21-119) (complex)
5 | 5.09 | 0.115 | 4590 | CD1d loaded with α-lyso-glucosylceramide (α-glucopsychosine) (from UniProt P11609 22-297; P01887 21-119) (complex)
